Measured values reported in patent publication US5618696A, “Human kunitz-type protease inhibitor and variants thereof” (Novo Nordisk A/S, priority 1992, dated 1997).
Numbering of substitutions follows the chain as printed. In names and notes the source's numbering stands. One block for each molecule: values may come before it. Where no end group is shown, it is not given here.

How the values were obtained:
collagenase = details: cited from earlier work
granulocyte elastase = molecular target: T1, granulocyte elastase (Homo sapiens, UniProt P08246); details: cited from earlier work
T1 sequence (P08246 30-267): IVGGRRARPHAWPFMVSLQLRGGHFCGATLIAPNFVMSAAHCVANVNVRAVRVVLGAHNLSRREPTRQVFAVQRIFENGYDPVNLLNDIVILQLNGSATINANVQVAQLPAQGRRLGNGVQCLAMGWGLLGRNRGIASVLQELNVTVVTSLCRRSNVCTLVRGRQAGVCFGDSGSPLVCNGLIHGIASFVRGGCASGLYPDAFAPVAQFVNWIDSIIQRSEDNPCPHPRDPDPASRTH

[1] = high doses, including cardiopulmonary bypass operations; cited from earlier work
[2] = Net charge of the inhibitor; type: physicochemical
plasmakallikrein = plasmakallikrein (Homo sapiens, UniProt P03952); details: cited from earlier work
Chain of plasmakallikrein (P03952 20-638, species assumed): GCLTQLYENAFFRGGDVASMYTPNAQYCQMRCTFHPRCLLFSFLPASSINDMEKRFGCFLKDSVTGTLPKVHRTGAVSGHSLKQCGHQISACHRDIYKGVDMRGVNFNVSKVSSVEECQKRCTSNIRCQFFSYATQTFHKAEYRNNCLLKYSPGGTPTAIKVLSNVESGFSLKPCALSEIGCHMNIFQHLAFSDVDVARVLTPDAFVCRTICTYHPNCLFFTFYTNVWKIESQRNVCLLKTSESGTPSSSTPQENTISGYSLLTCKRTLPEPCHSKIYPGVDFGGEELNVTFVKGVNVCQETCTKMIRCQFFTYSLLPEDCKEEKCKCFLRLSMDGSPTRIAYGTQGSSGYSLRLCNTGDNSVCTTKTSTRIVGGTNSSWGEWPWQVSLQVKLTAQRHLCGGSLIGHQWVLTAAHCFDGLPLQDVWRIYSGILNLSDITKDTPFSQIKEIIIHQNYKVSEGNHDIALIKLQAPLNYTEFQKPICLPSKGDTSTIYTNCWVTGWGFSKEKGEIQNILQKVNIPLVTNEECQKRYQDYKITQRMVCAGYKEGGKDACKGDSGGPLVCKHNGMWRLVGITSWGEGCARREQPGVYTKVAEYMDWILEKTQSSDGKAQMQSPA

Porcine trypsin = molecular target: T2, Porcine trypsin (Sus scrofa, UniProt P00761); test: Inhibition of trypsin by HKIB9 variants; type: biochemical; details: at 1 μM
T2 construct: purchased Novo Nordisk A/S
T2 sequence (P00761 9-231): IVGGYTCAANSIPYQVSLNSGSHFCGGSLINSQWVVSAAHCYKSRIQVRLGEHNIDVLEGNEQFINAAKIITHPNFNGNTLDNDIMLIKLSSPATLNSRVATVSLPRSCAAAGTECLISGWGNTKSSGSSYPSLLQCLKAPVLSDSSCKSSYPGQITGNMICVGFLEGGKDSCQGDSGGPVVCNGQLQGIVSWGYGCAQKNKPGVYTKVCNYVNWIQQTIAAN
Method: (§1) Their concentration was determined from the absorbance at 214 nm using aprotinin as a standard. Porcine trypsin was obtained from Novo Nordisk A/S, bovine chymotrypsin (TLCK treated) was obtained from Sigma Chemical Co. (St. Louis, Mo., U.S.A.). Human neutrophil cathepsin G and elastase were purified from extracts of PMNs according to the method described by Baugh and Travis, Biochemistry 15, 1976, pp. 836-843.
(§2) Peptidyl nitroanilide substrates S2251 and S2586 were obtained from Kabi (Stockholm, Sweden). S7388 and M4765 were obtained from Sigma Chemical Co.
(§3) Serine proteinases were incubated with various concentrations of the variants for 30 minutes. Substrate was then added and residual proteinase activity was measured at 405 nm.

[3] = molecular target: T3, Human neutrophil cathepsin G (Homo sapiens, UniProt P08311); test: Inhibition of cathepsin G by HKIB9 variants; type: biochemical; details: at 1 μM
T3 construct: Human neutrophil cathepsin G and elastase were purified from extracts of PMNs; from tissue; host or cells: human polymorphonuclear leukocytes (PMNs), method of Baugh and Travis
T3 sequence (P08311 21-255): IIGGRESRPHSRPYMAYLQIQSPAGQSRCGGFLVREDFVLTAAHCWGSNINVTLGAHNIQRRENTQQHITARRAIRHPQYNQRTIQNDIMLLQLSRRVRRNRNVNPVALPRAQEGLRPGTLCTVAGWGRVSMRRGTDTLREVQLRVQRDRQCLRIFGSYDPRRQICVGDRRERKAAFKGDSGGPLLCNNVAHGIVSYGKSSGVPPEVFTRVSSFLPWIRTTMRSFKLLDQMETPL
Method: as §1, §2, §3

[4] = molecular target: T4, bovine chymotrypsin (TLCK treated) (Bos taurus, UniProt P00766); test: Inhibition of chymotrypsin by HKIB9 variants; type: biochemical; details: at 1 μM
T4 construct: purchased Sigma Chemical Co. (St. Louis, Mo., U.S.A.)
Method: as §1, §2, §3

[5] = molecular target: bovine chymotrypsin (TLCK treated) (bovine) (UniProt P00766)
[6] = molecular target: Human neutrophil elastase (human, UniProt P08246); test: enzyme inhibition: proteinase incubated with various concentrations of the variant for 30 min, residual activity on peptidyl nitroanilide substrate at 405 nm
Method: as §3

Molecule: aprotinin(1-58, Val15)
effect on collagenase (collagenase): inhibitory effect
effect on / selectivity for granulocyte elastase (granulocyte elastase): relatively high selectivity

Molecule: aprotinin (1-58, Ala15)
effect on / selectivity for granulocyte elastase (granulocyte elastase): weak effect

Molecule: aprotinin [reference compound]
blood loss in connection with cardiac surgery [1]: significantly reduces blood loss
net charge [2]: strongly positive

Molecule: HKI B9: novel human Kunitz-type protease inhibitor domain, SEQ ID No. 1, produced from yeast strain KFN-1830 (DLLPNVCAFPMEKGPCQTYMTRWFFNFETGECELFAYGGCGGNSNNFLRKEKCEKFCKFT)
net charge [2]: zero

Molecule: aprotinin (3-58, Arg15, Ala17, Ser42)
plasmakallikrein inhibitory effect (plasmakallikrein): excellent

inhibition of trypsin (Porcine trypsin): not to inhibit
inhibition of cathepsin G [3]: not to inhibit
inhibition of chymotrypsin [4]: 5%
Molecule: [Q15V, T16G]-HKIB9 (DLLPNVCAFPMEKGPCVGYMTRWFFNFETGECELFAYGGCGGNSNNFLRKEKCEKFCKFT) [KFN 1902, HKIB9 Kunitz domain variant produced from yeast strain KFN-1902 (plasmid pKFN-1892)]

inhibition of trypsin (Porcine trypsin): not to inhibit
inhibition of cathepsin G [3]: not to inhibit
inhibition of chymotrypsin [4]: 5%
Molecule: [Q15V, T16A]-HKIB9 (DLLPNVCAFPMEKGPCVAYMTRWFFNFETGECELFAYGGCGGNSNNFLRKEKCEKFCKFT) [KFN 1930, HKIB9 Kunitz domain variant produced from yeast strain KFN-1930 (plasmid pKFN-1916)]

residual proteinase activity measured at 405 nm [5]: 5%
Ki [6]: 0.14 µM
B1: [Q15V, T16G]-HKIB9 (other)
chain: DLLPNVCAFPMEKGPCVGYMTRWFFNFETGECELFAYGGCGGNSNNFLRKEKCEKFCKFT
modifications: ends and bridges not checked; cysteine pairing not given here

residual proteinase activity measured at 405 nm [5]: 5%
Ki [6]: 0.064 µM
B2: [Q15V, T16A]-HKIB9 (other)
chain: B1 chain with G18A
modifications: ends and bridges not checked; cysteine pairing not given here
